From US20210095004

Columns and labels:
[1] = target: T1, Aca cand27
T1 chain: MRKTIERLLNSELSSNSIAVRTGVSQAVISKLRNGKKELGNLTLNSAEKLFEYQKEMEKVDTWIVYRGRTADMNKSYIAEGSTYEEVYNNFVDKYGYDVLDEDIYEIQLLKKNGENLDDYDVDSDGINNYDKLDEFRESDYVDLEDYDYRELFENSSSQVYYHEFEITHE

[2] = target: T2, Aca cand9
T2 chain: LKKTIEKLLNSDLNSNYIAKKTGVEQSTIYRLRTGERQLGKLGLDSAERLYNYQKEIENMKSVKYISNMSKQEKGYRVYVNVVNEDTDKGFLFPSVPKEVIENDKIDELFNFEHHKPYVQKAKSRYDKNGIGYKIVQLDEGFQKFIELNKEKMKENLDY

[3] = target: T3, truncated Aca cand27
T3 chain: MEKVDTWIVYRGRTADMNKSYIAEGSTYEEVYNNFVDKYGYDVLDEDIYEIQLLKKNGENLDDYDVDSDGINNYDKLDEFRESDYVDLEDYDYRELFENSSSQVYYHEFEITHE

[4] = target: T4, truncated Aca cand9
T4 chain: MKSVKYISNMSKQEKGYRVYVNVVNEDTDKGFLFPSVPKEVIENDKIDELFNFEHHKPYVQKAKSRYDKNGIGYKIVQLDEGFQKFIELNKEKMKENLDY

B1: Staphylococcus aureus Cas9 (protein)
chain: MKRNYILGLDIGITSVGYGIIDYETRDVIDAGVRLFKEANVENNEGRRSKRGARRLKRRRRHRIQRVKKLLFDYNLLTDHSELSGINPYEARVKGLSQKLSEEEFSAALLHLAKRRGVHNVNEVEEDTGNELSTKEQISRNSKALEEKYVAELQLERLKKDGEVRGSINRFKTSDYVKEAKQLLKVQKAYHQLDQSFIDTYIDLLETRRTYYEGPGEGSPFGWKDIKEWYEMLMGHCTYFPEELRSVKYAYNADLYNALNDLNNLVITRDENEKLEYYEKFQIIENVFKQKKKPTLKQIAKEILVNEEDIKGYRVTSTGKPEFTNLKVYHDIKDITARKEIIENAELLDQIAKILTIYQSSEDIQEELTNLNSELTQEEIEQISNLKGYTGTHNLSLKAINLILDELWHTNDNQIAIFNRLKLVPKKVDLSQQKEIPTTLVDDFILSPVVKRSFIQSIKVINAIIKKYGLPNDIIIELAREKNSKDAQKMINEMQKRNRQTNERIEEIIRTTGKENAKYLIEKIKLHDMQEGKCLYSLEAIPLEDLLNNPFNYEVDHIIPRSVSFDNSFNNKVLVKQEENSKKGNRTPFQYLSSSDSKISYETFKKHILNLAKGKGRISKTKKEYLLEERDINRFSVQKDFINRNLVDTRYATRGLMNLLRSYFRVNNLDVKVKSINGGFTSFLRRKWKFKKERNKGYKHHAEDALIIANADFIFKEWKKLDKAKKVMENQMFEEKQAESMPEIETEQEYKEIFITPHQIKHIKDFKDYKYSHRVDKKPNRELINDTLYSTRKDDKGNTLIVNNLNGLYDKDNDKLKKLINKSPEKLLMYHHDPQTYQKLKLIMEQYGDEKNPLYKYYEETGNYLTKYSKKDNGPVIKKIKYYGNKLNAHLDITDDYPNSRNKVVKLSLKPYRFDVYLDNGVYKFVTVKNLDVIKKENYYEVNSKCYEEAKKLKKISNQAEFIASFYNNDLIKINGELYRVIGVNNDLLNRIEVNMIDITYREYLENMNDKRPPRIIKTIASKTQSIKKYSTDILGNLYEVKSKKHPQIIKKG
Which results are given for B1?
SauCas9-mediated cleavage of target DNA in vitro (FIG. 1) [1]: inhibited SauCas9-mediated cleavage of target DNA at Acr:SauCas9 molar ratios of 10:1 and 20:1; SauCas9-mediated cleavage of target DNA in vitro (FIG. 1) [2]: inhibited SauCas9-mediated cleavage of target DNA at Acr:SauCas9 molar ratios of 10:1 and 20:1; SauCas9/guide RNA-mediated cleavage of target DNA in vitro (FIG. 2C) [3]: inhibited SauCas9/guide RNA-mediated cleavage of target DNA at truncated Acr:SauCas9 molar ratios of 5:1, 10:1, and 20:1; SauCas9/guide RNA-mediated cleavage of target DNA in vitro (FIG. 2B) [4]: inhibited SauCas9/guide RNA-mediated cleavage of target DNA at truncated Acr:SauCas9 molar ratios of 5:1, 10:1, and 20:1
